The supplement of paper PMC12042874
± gives the uncertainty stated by the source.

Experiment: amyloid nucleation score (Sup35N fusion, yeast selection) (log enrichment); library NNK1; higher = more nucleation; inactive = no reads after selection
Method in brief: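 Nucleation score: DiMSum log enrichment of output over input reads, centred on the mode score of non-aggregating sequences. Only sequences with at least 100 input reads were kept. Reads came from Illumina sequencing of plasmid inserts before and after 7 days of growth at 30°C without adenine and uracil, in psi-negative yeast expressing Sup35N fused to peptides of 20 random codons after 24 hours of induction with 100 μM copper sulfate.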

Substance	amyloid nucleation score
CSDCARIGLMSRCGDETW	0.132 ± 0.28
IPKCMYGRDRICLMLVAFEN	1.79 ± 0.28
NRNVYRSGVFGSGVWTRVER	0.15 ± 0.45
IYRSHRMPKSTRTLV	-1.16 ± 1.9
GRRTAI	-0.069 ± 0.66
SWKPVLSREDFWTNHKGRPM	0.565 ± 0.45
LCKFYPAFTGTTCTNLLSVW	0.321 ± 0.84
INALYRFGWKARFSMSC	0.282 ± 0.45
SCQIGLPVLTYRTATVGHKS	0.06 ± 1
GCFEFVCEVAVGVSLDYSYL	-0.085 ± 0.28
APSTDGMNMPTNGDRTPTLW	0.245 ± 0.42
FLKKGERTIF	-0.446 ± 1
SSFRYVCCASRCRETSELLG	0.142 ± 0.5
SHVEVDEEQVFSMSMVPTGE	-0.106 ± 0.46
RTFHYAVNINRWLNKECGLH	-0.702 ± 1.7
FFGFCSSVES	0.662 ± 0.51
RKVGVGKYLSHFECANRIWL	0.3 ± 0.33
ATYSLIFEPWPGPRLVPMQG	-0.12 ± 0.62
NSYKCIWMSLGVV	-0.897 ± 0.38
LYLIGTILNLIGY	5.746 ± 0.045
GYVDGSRGRGAPNGAMCRCF	0.205 ± 0.76
DSRRGYPMMSMMWW	-0.354 ± 0.39
SRVNDQCVLSSWR	0.47 ± 0.5
MDNGTESPLE	1.15 ± 0.72
IVLGYFRGIHFLGVLGMLIK	inactive

Substance	amyloid nucleation score
DGAYWELSY	-0.506 ± 0.27
IIDPDREYTVSN	-0.236 ± 0.95
FGFTGLTSW	-0.146 ± 1.4
FWPGFSWSIKLQLTFG	-0.326 ± 0.3
AVFWSNYCSMSCMSKTKKKS	0.159 ± 0.51
SFEKKSVPNSANLGATVLPN	0.196 ± 0.38
IRLGHIQVFVSGRFENRLIF	0.257 ± 0.56
EFLNSNLLNTYMKLFLIITH	3.36 ± 0.21
FGFVSPGPY	-0.611 ± 0.51
LAGIVCEWWFGWVGDVQLAF	-0.604 ± 0.85
NQTNIMCSPNIICSVSGQSG	6.743 ± 0.047
DAYVLD	0.314 ± 0.34
SCLMLGTGGETLRSRPPRKV	-1.45 ± 1.1
YNLGQVFSWINDTTSMMCGK	0.567 ± 0.32
VVSYTVQGGRSSHMANWG	0.35 ± 0.92
SWISCASGFFYFWAIF	-0.739 ± 0.77
ERGMEVLCNYENKGL	0.918 ± 0.6
MWIPFRVYLRAH	inactive
CQYVFVCRHFFLGKNHEALE	-0.462 ± 0.86
CEWFPRHKMYLESVFVYKRL	-0.116 ± 0.56
VKHFLSDMRLFIGPKIFMRC	4.49 ± 0.062
FYVRCREMSRGVWWSTSVR	-0.188 ± 0.34
LRTDALFY	0.577 ± 0.69
NLFCRRMSSDWALKSELSNH	0.708 ± 0.36
CYRPFSQNLPSVMLEFILAE	0.146 ± 0.27

Substance	amyloid nucleation score
IHCDIALNRSTWLYFPFVLA	inactive
CRYFSSSSGEAGQIFVVICG	-0.201 ± 0.67
VRDYAGPFSFPYRSLRSEWQ	0.193 ± 0.56
SHVFAIRT	0.574 ± 0.77
KLRIRSWKVFTPNSLLVVAI	-0.893 ± 1.1
AGSFFSYGQFVKFTVLYHSE	-0.053 ± 0.6
KYYMHLSSRDRRGAAWHLLF	-0.075 ± 0.29
RYLVVQLRMGLYLFAFKDPD	-0.686 ± 0.42
TKNSRTRLASSSLIWNW	-1.45 ± 0.76
YAPLDDSMKLCHERGESLCM	0.186 ± 0.83
PVKNRYTHR	inactive
HYRRVTVMCPLRVFVYAPKT	5.61 ± 0.094
TNCGITFVFTPIPRATTWSN	5.37 ± 0.083
YYLIFHFDYHLVIYLW	0.707 ± 0.41
IRVLVSCVGYPFTCILKVWT	1.18 ± 0.97
AKLMGCYMQRSICITRVPFL	0.702 ± 0.51
LTTQIVIFFCWVCKDINCCK	4.88 ± 0.081
SVLIVLMHGMGYQQKTYCRF	0.316 ± 0.48
RCRYYCNR	-0.152 ± 0.48
FIGMTDPMSIDILLLSS	0.389 ± 0.58
DGYGLIFW	-0.268 ± 0.47
YRTVSDTVAY	1.42 ± 0.79
RIKNGLPKGFFGKSLSPMRW	-0.161 ± 0.8
YYVKISLGGSLNNLWKRDWW	3.54 ± 0.1
MQLHNGWMLITYKKGTSIIW	-2.3 ± 1.8

Substance	amyloid nucleation score
CVLPFGLSSG	0.483 ± 0.48
SELEIA	inactive
WAWYLCSPESANFHNLHRLW	0.324 ± 1.1
GGYGCDGCLSNCMRLNGVWV	inactive
WENLKVSNYDLYSVLPLYGP	0.381 ± 0.45
SKSLFIIGTVPDRS	-0.467 ± 0.52
WSVVLDFTVDLVHFGPVGRC	0.242 ± 0.36
FSTMAYTWVLYTSWACAGAS	0.075 ± 0.69
FCHVRTL	-0.97 ± 1.7
IVLFSPFTW	-0.062 ± 0.31
YTFNVVCILTTEYWGNGWLY	2.91 ± 0.16
MLGSGAANTCHLTTRAWDHR	0.183 ± 0.39
KVVRAACCQKMFERVGVHGG	-0.842 ± 0.94
TPDHLWLWLFYLNCNTENYG	7.757 ± 0.046
TVFMVKDRVILRFGRGLKAW	-1.09 ± 1.1
DNRLVSSGMRRGHSGWIGGT	0.505 ± 0.71
DMKNYVPVLLGNTMIMLWGL	3.08 ± 0.085
AQKCPALYRLMNMPEKEKVG	0.18 ± 0.43
SKVSVCNPSSLGSRVGGLAN	inactive
YFHPLTKLI	-0.288 ± 0.82
AHLEGYYHWHYSEFWSVVVK	-0.437 ± 0.31
RSCGQFLSWSACPFVSLRRR	0.274 ± 0.46
LYGSVKNIKRLPHCFMLCLC	0.616 ± 0.36
WAYWRYVNENRSVCRRKVGF	-0.053 ± 0.31
RIGETASYTL	-0.09 ± 0.47

Substance	amyloid nucleation score
TWNVMYRIRF	2.04 ± 0.23
KIRVDRFNIRSCDIGSDLCY	-1.07 ± 0.43
GHDVWKANSLTRVKLREYYG	0.546 ± 0.35
DDVVWNYSTA	-0.487 ± 0.58
MLHHLSYVAVRWCKRTRKLC	0.405 ± 0.71
DWFSGLNRPRCIKLAQGGTG	0.441 ± 0.38
GWLLYDSPSRFTYC	-0.531 ± 0.37
CGALWALKV	-1.04 ± 0.78
WVRLINSGGQSYFRCGEGRS	0.654 ± 1.2
MTRNELLSLSLARCVGANAL	0.088 ± 1.2
WFGSYWSIVVTTVRVIV	inactive
LSMWSRHSMTPRFFLGLTPV	0.766 ± 0.69
PLWLCGGFQQWASGCRSVGL	-1.06 ± 0.49
VWIPYCLNFQSCNNHKLSLA	-1.13 ± 1
GRSFGQSGRISRAGNVGIIC	-0.266 ± 0.38
RWEFGLRHGKSVKWSIPSLY	-0.085 ± 0.95
WNSRTSESC	2.97 ± 0.15
GVNFFGCHCVHN	-0.113 ± 0.41
SSDRAYVFCTRNMEVREGSK	-0.835 ± 0.72
KGRSNLIADFGDLFGGLYTY	-0.57 ± 0.37
SFNYRIAFFSRYRPYMGSLG	1.76 ± 0.37
LCSDIG	-0.09 ± 0.4
SSGDVPGFSPYGKWDFWWTC	-0.151 ± 0.45
SNKFKPVWRVLMSRVSVEAW	-0.133 ± 0.68
TCLKFDSPMNCKGLSSLDMM	-0.496 ± 0.38

Substance	amyloid nucleation score
NGCVLLMVMVLTVDIAL	2.78 ± 0.18
HLNNSLLELVNCRKYSIKGC	0.088 ± 0.35
GPLKPFNASLVGTGAVLHGE	0.034 ± 0.52
SSSFPVMVYTHDAANCHRML	-0.763 ± 0.41
MRLSHAVTYRN	-0.987 ± 1.7
CHVIIVQRYFMSVTLSQCWW	0.489 ± 0.24
SSIGVVKGCIVLWLSMWNQR	4.32 ± 0.066
VEEAYER	-0.485 ± 0.5
GNFGWHSLSYRDNYICSWAL	4.43 ± 0.068
HKTFGCCLDLWHIMPHFIIL	-0.396 ± 0.37
PFAGNHTMWKVPTWGKSWKG	-0.398 ± 0.7
YYLQLIYMHKNRMLISCVCC	inactive
TTSYHTNGRAVRIVYPFANS	-0.096 ± 0.6
WYVLDDLHWIQGCNIGIVGG	inactive
LGNNPTKHC	-0.171 ± 0.51
LDEVHESSIRSGNY	3.12 ± 0.17
CVGVWVRFLTQQCSTHKQYE	-0.116 ± 1.2
MRLSQRWPNSKVCDLRHSRP	0.632 ± 0.45
ELLCLNL	-0.83 ± 0.73
YVTMYVRMPGRFTTTHMWLI	-0.962 ± 0.63
EFVVGDKR	-0.311 ± 0.82
MTRLINYCNGYNAKVVNWCF	0.7 ± 0.97
TRNVQHRIRSKSTISDKQIF	inactive
ARVPSKYRVEVHGRKKAWRG	-0.814 ± 0.6
CAVVVGVSGGAHEGVGKTKY	-0.35 ± 0.45

Substance	amyloid nucleation score
GFHEIMLYYSYIKVLVIDSH	0.387 ± 0.75
GGFFKRL	0.161 ± 0.36
SGKCIFSFE	-0.065 ± 0.34
SVIRVLWKGYGTRN	-1.55 ± 1.4
PLMWS	0.251 ± 0.29
VDSLITRSWVDHHNKYNHGI	0.635 ± 0.64
AFFPGNFWACGSFDFLWYWL	3.38 ± 0.083
TLWTWTSYRVVLYSSSVKLG	-0.451 ± 0.32
CRSSHE	0.109 ± 1.4
LDSAYSGGKCYTWFNIRRFV	0.361 ± 0.86
RYFSRAVACDHNES	-0.547 ± 0.84
GRVLYKSCALNNFSIMQVLC	4.61 ± 0.1
INFCRSPMPWNGSALVNLMV	-0.014 ± 0.53
KTCYLQ	-0.284 ± 1.1
NDDYHTLSQCACSFALRADG	1.08 ± 0.54
SGSWNMCNHVRVNCYAIDKV	0.167 ± 0.3
VACNIGHSYVNYYCRGIILC	0.586 ± 0.4
AIRPSIR	-0.318 ± 0.33
CRLCLRKHLSVISSSAEYLP	inactive
IRLNVFFNMELMRLDLLWR	0.311 ± 0.72
NKAVKLQSDPMGALC	0.701 ± 0.54
